In paper PMC4651853 (DNA repair, 2015):
Several values for one entry are separate records, joined by “and”; a condition that tells them apart may be missing. Equal entries are not always repeated.

B1: his-MutL (natural protein, E. coli, UniProt P23367 1-615, looked up)
chain: MPIQVLPPQLANQIAAGEVVERPASVVKELVENSLDAGATRIDIDIERGGAKLIRIRDNGCGIKKDELALALARHATSKIASLDDLEAIISLGFRGEALASISSVSRLTLTSRTAEQQEAWQAYAEGRDMNVTVKPAAHPVGTTLEVLDLFYNTPARRKFLRTEKTEFNHIDEIIRRIALARFDVTINLSHNGKIVRQYRAVPEGGQKERRLGAICGTAFLEQALAIEWQHGDLTLRGWVADPNHTTPALAEIQYCYVNGRMMRDRLINHAIRQACEDKLGADQQPAFVLYLEIDPHQVDVNVHPAKHEVRFHQSRLVHDFIYQGVLSVLQQQLETPLPLDDEPQPAPRSIPENRVAAGRNHFAEPAAREPVAPRYTPAPASGSRPAAPWPNAQPGYQKQQGEVYRQLLQTPAPMQKLKAPEPQEPALAANSQSFGRVLTIVHSDCALLERDGNISLLSLPVAERWLRQAQLTPGEAPVCAQPLLIPLRLKVSAEEKSALEKAQSALAELGIDFQSDAQHVTIRAVPLPLRQQNLQILIPELIGYLAKQSVFEPGNIAQWIARNLMSEHAQWSMAQAITLLADVERLCPQLVKTPPGGLLQSVDLHPAIKALKDE
B2: MutS (natural protein, E. coli, UniProt P23909 1-853, looked up)
chain: MSAIENFDAHTPMMQQYLRLKAQHPEILLFYRMGDFYELFYDDAKRASQLLDISLTKRGASAGEPIPMAGIPYHAVENYLAKLVNQGESVAICEQIGDPATSKGPVERKVVRIVTPGTISDEALLQERQDNLLAAIWQDSKGFGYATLDISSGRFRLSEPADRETMAAELQRTNPAELLYAEDFAEMSLIEGRRGLRRRPLWEFEIDTARQQLNLQFGTRDLVGFGVENAPRGLCAAGCLLQYAKDTQRTTLPHIRSITMEREQDSIIMDAATRRNLEITQNLAGGAENTLASVLDCTVTPMGSRMLKRWLHMPVRDTRVLLERQQTIGALQDFTAGLQPVLRQVGDLERILARLALRTARPRDLARMRHAFQQLPELRAQLETVDSAPVQALREKMGEFAELRDLLERAIIDTPPVLVRDGGVIASGYNEELDEWRALADGATDYLERLEVRERERTGLDTLKVGFNAVHGYYIQISRGQSHLAPINYMRRQTLKNAERYIIPELKEYEDKVLTSKGKALALEKQLYEELFDLLLPHLEALQQSASALAELDVLVNLAERAYTLNYTCPTFIDKPGIRITEGRHPVVEQVLNEPFIANPLNLSPQRRMLIITGPNMGGKSTYMRQTALIALMAYIGSYVPAQKVEIGPIDRIFTRVGAADDLASGRSTFMVEMTETANILHNATEYSLVLMDEIGRGTSTYDGLSLAWACAENLANKIKALTLFATHYFELTQLPEKMEGVANVHLDALEHGDTIAFMHSVQDGAASKSYGLAVAALAGVPKEVIKRARQKLRELESISPNAAATQVDGTQMSLLSVPEETSPAVEALENLDPDSLTPRQALEWIYRLKSLV

Key:
[1] = target: B2; experiment: atomic force microscopy
[2] = target: the molecule itself; experiment: atomic force microscopy

binding result [1] | Binder | stoichiometry N [2]
binds | B1 | 
 | B2 | 2 and 4
